Measurements reported in patent JP2023032631A (dated 2023).
Substitutions are numbered along the chain they refer to.

B1: 抗SARS-CoV-2 RBD VHH抗体 A03 (VHH, not shown: small tags and cut ends)
VHH: QVQLVESGGALVQPGGSLRLSCAASGFPVNHNAMHWFRQAPGKERESVAGISHVVYRTYYEDSVKGRFTISRDDARNTVYLQMNSLKPEDTAVYYCAAVALTDLRLYWGQGTQVTVGG
notes: also called A03
B2: 抗SARS-CoV-2 RBD VHH抗体 A02 (VHH, not shown: small tags and cut ends)
VHH: QVQLVESGGALVQPGGSLRLSCAASGFPVNRNTMHWFRQAPGKEREGVAGISSRGDWTYYEDSVKGRFTISRDDARNTVYLQMNSLKPEDTAVYYCAAYLWLLGGVYWGQGTQVTVGG
notes: also called A02
B3: 抗SARS-CoV-2 RBD VHH抗体 B13 (VHH, not shown: small tags and cut ends)
VHH: B2 VHH with R31H, N32H, H35L, S53F, D56N, Y99H
notes: also called B13
B4: 抗SARS-CoV-2 RBD VHH抗体 B02 (VHH, not shown: small tags and cut ends)
VHH: B2 VHH with Y99L, L102N, L103Y, Y107C
notes: also called B02
B5: 抗SARS-CoV-2 RBD VHH抗体 B04 (VHH, not shown: small tags and cut ends)
VHH: B2 VHH with Y99L, L102H, L103Y, V116A
notes: also called B04
B6: 抗SARS-CoV-2 RBD VHH抗体 B16 (VHH, not shown: small tags and cut ends)
VHH: B2 VHH with R31H, T33A, M34V, S53H, R54L, G55V, D56H, W57R
notes: also called B16
B7: 抗SARS-CoV-2 RBD VHH抗体 A15 (VHH, not shown: small tags and cut ends)
VHH: QVQLVESGGALVQPGGSLRLSCAASGFPVNRNTMHWYRQAPGKEREGVAGISSRGDWTYYEDSVKGRFTISRDDARNTVYLQMSSLKPEDTAVYYCAAVGVLSVSAFGWLYWGQGTQVTVGG
notes: also called A15

target: T1, SARS-CoV-2 RBDタンパク質(Recombinant SARS-CoV-2, S1 Subunit Protein (RBD)、RayBiotech Life, Inc.) (SARS-CoV-2, UniProt P0DTC2 319-541); assay: ELISA, RBD coated 50 ng/well, VHH 50 ng/well, anti-FLAG detection, A450, n=4

Binder	binding result
B1	binds
B2	binds

target: T1, SARS-CoV-2 RBDタンパク質(Recombinant …; assay: ELISA on coated RBD, legend of Figure 2, n=4

Binder	binding result
B3	binds
B4	binds
B5	binds
B6	binds
B7	binds
